Laboratory results taken from paper PMC7887190.

Target: YB1 (UniProt P67809)
Assay: reciprocal co-IP (anti-YB1, anti-WAVE3), blot

binding against the reference (reference: wild-type WAVE3 (W3-WT), sites Y151,Y248,Y337,Y486)	binding against the reference (reference: PRD-WT (GFP fusion), sites Y248,Y337)	Substance
lost	–	WAVE3 (from UniProt Q9UPY6) W3-Y4F
–	weaker	WAVE3 proline-rich domain (PRD) (from UniProt Q9UPY6) PRD-DM (Y248F/Y337F)
